Reference: patent US20200157248A1
Numbering of substitutions follows the chain as printed.

B1: VHH clone 8B03 (VHH)
VHH: EVQLVESGGGLVQPGGSLRLSCRASGAIFSINHMGWYRQAPGKQRELVATITSGGSTNYADSVKGRFTISRDNAKNTVYLQMNSLKPEDTAVYSCNLDWTTGWGSRRDYWGQGTQVTVSS
B2: VHH clone 8G1 (VHH)
VHH: B1 VHH with E1Q
B3: VHH clone 8G11 (VHH)
VHH: EVQLVESGGGLVQAGGSLRLSCAASGRTFDIYTMGWFRQVPGKEREFVADIGRAGGTTHYADSVKGRFAISRDNANDAVHLQMNSLKPEDTAVYYCATKVVPRAGRRLLDYDYWGQGTQVTVSS
B4: VHH clone 8G12 (VHH)
VHH: EVQLVESGGGLVRAGGSLRLSCAASGSIFGTTNMGWYRQAPGTQRDLVATINNGGITNYADSVKGRFTISTDYTKNTVYLQMDRLKPEDTAVYYCNAEYHFRPPSWGQGTQVTVSS
B5: VHH clone 8GO9 (VHH)
VHH: QVQLVESGGGLVQAGGSLRLSCAASGRTFSRYGMSWFRQAPGKEREFVATISRGGSSTNYADSTKGRFTVSRDNAKNTVVLQMNSLKPEDTAVYYCAADTNWPVGAYEYWGQGTQVTVSS

target: Fwt; test: ELISA, VHH on coated antibody

Going from B1 to B2, the ELISA OD rises from 0.069 OD to 0.079 OD.

Going from B3 to B4, the ELISA OD falls from 0.073 OD to 0.063 OD.

For B5, the ELISA OD was 0.114 OD.

target: mutC4/Cmut4; test: ELISA, VHH on coated antibody

B1 and B2 are the same in ELISA OD: 0.068 OD for the first, 0.068 OD for the second.

Compared with B3, B4 is higher in ELISA OD: 0.054 OD for the first, 0.2 OD for the second.

B5 gave an ELISA OD of 0.068 OD.

target: mutF4/Fmut4; test: ELISA, VHH on coated antibody

Compared with B1, B2 is lower in ELISA OD: 0.221 OD for the first, 0.128 OD for the second.

First: B3
Second: B4
The ELISA OD of the first is lower: 0.123 OD for the first, 0.159 OD for the second.

B5 was tested, and the ELISA OD was 0.153 OD.
